Key:
Saccharomyces cerevisiae [1] = experiment: protein stability index of tFT-peptide fusion in wild type (PSI (0-1 scale)); higher = more stable (slower turnover); conditions: genetic background: wild type
Protocol: (§1)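 MPS profiling in S. cerevisiae of two library types built from selected 12-aa C-degron peptides (IN1, IN2, LN1, LN3, VN2, R1-R5, W1-W3, Atg1 and Rpa12 C-termini): saturation mutagenesis libraries and C-terminal +1 capping libraries (13 aa). Each peptide is fused to the C-terminus of a sfGFP-mCherry timer, after a GGGS linker. Cells are FACS-sorted into 8 mCherry/sfGFP bins and sequenced. PSI runs from 0 (unstable) to 1 (stable), measured once in wild type and in the das1Δ or doa10Δ background.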

Saccharomyces cerevisiae [2] = experiment: protein stability index of tFT-peptide fusion in deletion strain of DAS1 (PSI (0-1 scale)); higher = more stable (slower turnover)
Protocol: as §1
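For protein stability index of tFT-peptide fusion in deletion strain of DAS1 in this document: PSI is a weighted mean of each variant's read distribution over the sorted stability bins, computed only for variants having over 10 reads in total.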
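For protein stability index of tFT-peptide fusion in wild type in this document: PSI derived as read-weighted mean over the 8 sorting bins, only variants exceeding 10 total reads kept, mCherry placed adjacent to the peptide and sfGFP distal.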

Sequence | protein stability index (Saccharomyces cerevisiae [1]) | protein stability index (Saccharomyces cerevisiae [2])
CTSDGYKFRTNN | 0.517 | 0.669
CTSLGYKFRTNN | 0.17 | 0.689
CTSRGYKFRTNN | 0.215 | 0.685
CYSCGYKFRTNN | 0.168 | 0.708
DKHKKGQKQKIN | 0.113 | 0.602
FMMRWTFRYWVN | 0.0399 | 0.359
FQMRWTFRYWVN | 0.0681 | 0.46
FRMRWTFRYWVN | 0.0353 | 0.584
FSKRWTFRYWVN | 0.0512 | 0.596
FSMEWTFRYWVN | 0.112 | 0.425
FSMRNTFRYWVN | 0.0817 | 0.578
FSMRSTFRYWVN | 0.096 | 0.608
FSMRWCFRYWVN | 0.0796 | 0.554
FSMRWEFRYWVN | 0.0711 | 0.471
FSMRWNFRYWVN | 0.0584 | 0.536
FSMRWTFDYWVN | 0.618 | 0.577
FSMRWTFHYWVN | 0.048 | 0.456
FSMRWTFREWVN | 0.0594 | 0.57
FSMRWTFRRWVN | 0.11 | 0.623
FSMRWTFRWWVN | 0.0591 | 0.462
FSMRWTFRYLVN | 0.0662 | 0.479
FSMRWTFRYWNN | 0.158 | 0.549
FSMRWTFRYWVM | 0.136 | 0.482

Sequence | protein stability index (Saccharomyces cerevisiae [1]) | protein stability index (Saccharomyces cerevisiae [2])
FSMRWTFRYWVNP | 0.533 | 0.544
FSMRWTFRYWVR | 0.416 | 0.446
FSMRWTFWYWVN | 0.0405 | 0.416
FSMRWTNRYWVN | 0.0731 | 0.592
FSMRWTRRYWVN | 0.101 | 0.585
FSMSWTFRYWVN | 0.0567 | 0.493
GTSCGYKFRTNN | 0.261 | 0.659
HSLAASFWRVVG | 0.121 | 0.691
KKHKAGQKQKIN | 0.0948 | 0.579
KKHKKGCKQKIN | 0.0767 | 0.598
KKHKKGDKQKIN | 0.137 | 0.599
KKHKKGLKQKIN | 0.0663 | 0.596
KKHKKGQKPKIN | 0.574 | 0.626
KKHKKGQKQKDN | 0.607 | 0.638
KKHKKGQKQKINL | 0.652 | 0.663
KKHKKGQKQKKN | 0.577 | 0.843
KKHKKGQKQKMN | 0.0838 | 0.533
KKHKKGQKQKNN | 0.476 | 0.643
KKHKKGQKQSIN | 0.673 | 0.577
KKHKKTQKQKIN | 0.0737 | 0.677
KKHKVGQKQKIN | 0.0595 | 0.567
KKHPKGQKQKIN | 0.14 | 0.684
KKHSKGQKQKIN | 0.0645 | 0.576

Sequence | protein stability index (Saccharomyces cerevisiae [1]) | protein stability index (Saccharomyces cerevisiae [2])
KKILRQKMNHQN | 0.159 | 0.688
KKPKKGQKQKIN | 0.174 | 0.591
KKSKKGQKQKIN | 0.0679 | 0.576
KKTKKGQKQKIN | 0.113 | 0.583
KKVKKGQKQKIN | 0.122 | 0.631
KPHKKGQKQKIN | 0.0908 | 0.625
KQHKKGQKQKIN | 0.104 | 0.621
KTHKKGQKQKIN | 0.0924 | 0.684
LCILRQKMNHQN | 0.115 | 0.655
LDILRQKMNHQN | 0.121 | 0.707
LEILRQKMNHQN | 0.161 | 0.672
LFVYLSCVACIN | 0.0334 | 0.0251
LKCLRQKMNHQN | 0.205 | 0.682
LKELRQKMNHQN | 0.217 | 0.673
LKIGRQKMNHQN | 0.414 | 0.674
LKILGQKMNHQN | 0.365 | 0.678
LKILRHKMNHQN | 0.194 | 0.693
LKILRMKMNHQN | 0.243 | 0.71
LKILRQKFNHQN | 0.202 | 0.668
LKILRQKMDHQN | 0.613 | 0.673
LKILRQKMFHQN | 0.206 | 0.654
LKILRQKMNHKN | 0.484 | 0.678
LKILRQKMNHLN | 0.192 | 0.674

Sequence | protein stability index (Saccharomyces cerevisiae [1]) | protein stability index (Saccharomyces cerevisiae [2])
LKILRQKMNHMN | 0.191 | 0.605
LKILRQKMNHQD | 0.622 | 0.667
LKILRQKMNHQG | 0.215 | 0.656
LKILRQKMNHTN | 0.197 | 0.672
LKILRQKMQHQN | 0.238 | 0.716
LKILRQKVNHQN | 0.282 | 0.661
LKILVQKMNHQN | 0.218 | 0.662
LKIQRQKMNHQN | 0.23 | 0.676
LKPLRQKMNHQN | 0.172 | 0.682
LKVYLSCVACIN | 0.0444 | 0.14
LKYLRQKMNHQN | 0.17 | 0.629
LRILRQKMNHQN | 0.148 | 0.666
LVAYLSCVACIN | 0.0244 | 0.156
LVGYLSCVACIN | 0.0848 | 0.342
LVVKLSCVACIN | 0.0127 | 0.0586
LVVPLSCVACIN | 0.254 | 0.359
LVVYLSCTACIN | 0.0192 | 0.0401
LVVYLSCVACCN | 0.0106 | 0.0342
LVVYLSCVACHN | 0.0435 | 0.0392
LVVYLSCVACIG | 0.0178 | 0.0316
